The text below walks through data of paper PMC4174439 (RNA, 2014).

This data set deals with the molecule itself. In words: SDS-PAGE.

B1: Cd-HfqHis6 (Clostridium difficile Hfq bearing a C-terminal His-tag) (natural protein, Clostridium difficile strain 630, UniProt Q187T2 1-86, looked up)
chain: MKNTVLNLQDLFLNNARKERIPVTIYLVNGVQVKGLVKGFDSYIILIEGDNRQQNMIYKHAVSTIQPGKYINLTNQNQNNNNNNNR
For orientation: stoichiometry N means a count of units in the complex or per binding partner. For B1, the “stoichiometry N” value worked out at 6.
